Tests used:
[1] = Luminescence activity of ZZ-fused WNanoKAZ mutants in crude enzyme solution (Example 10); format: biochemical; settings: coelenterazine substrate; for Relative luminescence activity (Imax): ZZ-fused, pCold-ZZ-P- vector in E. coli, KAZ = 1.0; for fold higher activity than native KAZ / fold higher activity than the relative activity 7.4 of dnKAZ: Imax
Protocol: In order to express ZZ-fused KAZ mutants in E. coli, the recombinant plasmid produced in EXAMPLE 8 and pCold-ZZ-P-WNanoKAZ produced in EXAMPLE 1 were used. The crude enzyme solution was prepared in a manner similar to EXAMPLE 2, using the E. coli BL21 strain (Novagen, Madison, Wis.) as a host cell. Then, 5 μL of the crude enzyme solution obtained was subjected to SDS-PAGE analysis to confirm the protein expression in all mutants. In FIG. 1, M and 1 to 8 represent as follows. M: molecular weight size markers; 1: ZZ-P-KAZ; 2: ZZ-P-WNanoKAZ; 3: ZZ-P-WNanoKAZ-V90I; 4: ZZ-P-WNanoKAZ-E115P; 5: ZZ-P-WNanoKAZ-K124Q; 6: ZZ-P-WNanoKAZ-I138Y; 7: ZZ-P-WNanoKAZ-R166N; 8: ZZ-P-dnKAZ. It was confirmed from FIG. 1 that all mutants were expressed.
(§1) DTT was added to the crude enzyme solution obtained in EXAMPLE 9 at a final concentration of 1 mM, and then allowed to stand in an ice-water bath over 8 hours or more. After 1 μL of the crude enzyme solution was added to 100 μL of 30 mM Tris-HCl (pH 7.6)-10 mM EDTA (Wako Pure Chemical Industries, Ltd.) containing 1 μg of coelenterazine (manufactured by JNC Corp.), a luminescence reaction was started. Luminescence activity was measured for 60 seconds using a luminometer (manufactured by Atto Inc.: AB2200). The maximum intensity of luminescence (Imax) was given as a relative luminescence activity (rlu).

[2] = Substrate specificity of WNanoKAZ mutants, crude enzyme solution (Example 11); format: biochemical; settings: for Relative luminescence activity, 6h-CTZ, Imax / Relative luminescence activity, 6h-CTZ, Int.: substrate 6h-CTZ; for Relative luminescence activity, 6h-f-CTZ, Imax / Relative luminescence activity, 6h-f-CTZ, Int.: substrate 6h-f-CTZ; for Relative luminescence activity, CTZ, Imax / Relative luminescence activity, CTZ, Int.: substrate CTZ
Protocol: as §1
Each of the coelenterazine analogues used for substrate specificity studies was synthesized by the methods described in publications. Specifically, bis-coelenterazine was synthesized by the method described in Nakamura et al. (1997) Tetrahedron Lett. 38: 6405-6406, furimazine by the method described in Hall et al. (2012) ACS Chem. Biol. […], and, 6h-coelenterazine, f-coelenterazine and 6h-f-coelenterazine by the method described in Inouye et al (2013) Biochem. Biophys. Res. Commun. 437: 23-28. Luminescence activity was measured by the same method as in EXAMPLE 10, using the crude enzyme solution obtained in EXAMPLE 10, in which coelenterazine or its analogue was used as the luminescence substrate.

CHO-K1 cells = assay: Luminescence activity of WNanoKAZ mutants expressed by secretory expression vectors in animal culture cells (Example 13); format: cell-based, Chinese hamster; settings: pcDNA3-GLsp- secretory vector, coelenterazine substrate
Protocol: Chinese hamster ovary cell line CHO-K1 was cultured in Ham's F-12 medium (manufactured by Wako Pure Chemical Industries, Ltd.) supplemented with 10% (v/v) fetal bovine serum (manufactured by Biowest Inc.). The CHO-K1 cells were seeded in a 6-well plate in 1×10^5 cells/well/2 mL medium (n=2) and cultured in an incubator at 37° C. in 5% (v/v) CO2. After 24 hours, the purified recombinant plasmid was transfected to CHO-K1 cells using a FuGene HD transfection kit (manufactured by Promega Corp.) and the cells were used for subsequent experiment. Specifically, 1 μg of the recombinant plasmid, 0.1 μg of the internal standard vector pGL4.13 [Luc2/sv40] and 3 μL of FuGene HD were added to 100 μL of the medium and allowed to stand at room temperature for 15 minutes. Subsequently, 100 μL of the DNA-FuGene complex solution was added to the cells in the 6-well plate. After incubation for 46 hours, the culture medium was collected. On the other hand, the KAZ mutant expressed in the cells was washed 3 times with 3 mL of 1×PBS, then suspended in 1 mL of 1×PBS and disrupted by sonication on ice. The resultant cell extract of WNanoKAZ was used as the enzyme solution.
After adding 5 μL of the culture medium and cell extract obtained in EXAMPLE 5 to 100 μL of 30 mM Tris-HCl (pH 7.6)-10 mM EDTA (Wako Pure Chemical Industries, Ltd.) containing 1 μg of coelenterazine (manufactured by JNC Corp.), a luminescence reaction was started. Luminescence activity was measured for 60 seconds using a luminometer (manufactured by Atto Inc.: AB2200). The maximum intensity of luminescence (Imax) was given as a percentage (%).
The recombinant plasmid obtained in EXAMPLE 12 or 4 was purified in a manner similar to EXAMPLE 5 and dissolved in sterile water. The firefly luciferase vector (pGL4.13 [Luc2/sv40]: manufactured by Promega Corp.) was similarly prepared and used as an internal standard.
Culture medium containing two amino acid-substituted KAZ mutants and three amino acid-substituted KAZ mutants and cell extracts of the KAZ mutants as the enzyme solutions were prepared by the same procedure as in EXAMPLE 9.
The resultant culture medium and cell extracts were used to measure luminescence activity as in EXAMPLE 6.

Row | Molecule | Relative luminescence activity (Imax) [1] | fold higher activity than native KAZ [1] | fold higher activity than the relative activity 7.4 of dnKAZ [1] | Relative luminescence activity, Furimazine, Imax [2] | Relative luminescence activity, bis-CTZ, Imax [2] | Relative luminescence activity, f-CTZ, Imax [2] | Relative luminescence activity, h-CTZ, Imax [2] | Relative luminescence activity, Furimazine, Int. [2] | Relative luminescence activity, bis-CTZ, Int. [2] | Relative luminescence activity, f-CTZ, Int. [2] | Relative luminescence activity, h-CTZ, Int. [2] | fold higher activity than the other coelenterazine analogues when coelenterazine was used as the substrate [2] | Relative luminescence activity, 6h-CTZ, Imax [2] | Relative luminescence activity, 6h-CTZ, Int. [2] | Relative luminescence activity, 6h-f-CTZ, Imax [2] | Relative luminescence activity, 6h-f-CTZ, Int. [2] | Relative luminescence activity, CTZ, Imax [2] | Relative luminescence activity, CTZ, Int. [2] | Relative luminescence activity (%, Imax) Cell extracts (CHO-K1 cells) | Relative luminescence activity (%, Imax) Culture medium (CHO-K1 cells) | also measured
1 | WNanoKAZ-V90I: single amino acid-substituted WNanoKAZ mutant, valine 90 back to isoleucine; SEQ ID NO: 8 (protein) FTLADFVGDWQQTAGYNQDQVLEQGGLSSLFQALGVSVTPIQKVVLSGENGLKADIHVIIPYEGLSGFQMGLIEMIFKVVYPVDDHHFKIILHYGTLVIDGVTPNMIDYFGRPYEGIAVFDGKKITVTGTLWNGNKIIDERLINPDGSLLFRVTINGVTGWRLCERILA | 34 | 34 fold | 4.6 fold | 17 | 23 | 31 | 41 | 15 | 21 | 22 | 22 | 4.6 fold | 5.1 | 5.6 | 23 | 23 | 34 | 35 | 15% | 0.03% | –
2 | WNanoKAZ-I138Y: single amino acid-substituted WNanoKAZ mutant I138Y; SEQ ID NO: 14 (protein) FTLADFVGDWQQTAGYNQDQVLEQGGLSSLFQALGVSVTPIQKVVLSGENGLKADIHVIIPYEGLSGFQMGLIEMIFKVVYPVDDHHFKVILHYGTLVIDGVTPNMIDYFGRPYEGIAVFDGKKITVTGTLWNGNKIYDERLINPDGSLLFRVTINGVTGWRLCERILA | 8.5 | 8.5 fold | 1.1 fold | 11 | 18 | 29 | 35 | 8.9 | 17 | 18 | 22 | 1.1 fold | 1.7 | 2.8 | 17 | 10 | 8.5 | 8.9 | 10% | <0.01% | activity compared with dnKAZ (in words) [1]: decreased to the same level as that of dnKAZ
3 | WNanoKAZ-E115P: WNanoKAZ with substitution of proline for glutamic acid at position 115; SEQ ID NO: 10 (protein) FTLADFVGDWQQTAGYNQDQVLEQGGLSSLFQALGVSVTPIQKVVLSGENGLKADIHVIIPYEGLSGFQMGLIEMIFKVVYPVDDHHFKVILHYGTLVIDGVTPNMIDYFGRPYPGIAVFDGKKITVTGTLWNGNKIIDERLINPDGSLLFRVTINGVTGWRLCERILA | 31 | 31 fold | 4.2 fold | 13 | 18 | 22 | 27 | 11 | 19 | 14 | 17 | 4.2 fold | 5.9 | 6.1 | 14 | 11 | 31 | 26 | 12% | <0.01% | –
4 | WNanoKAZ-K124Q: single amino acid-substituted WNanoKAZ mutant K124Q; SEQ ID NO: 12 (protein) FTLADFVGDWQQTAGYNQDQVLEQGGLSSLFQALGVSVTPIQKVVLSGENGLKADIHVIIPYEGLSGFQMGLIEMIFKVVYPVDDHHFKVILHYGTLVIDGVTPNMIDYFGRPYEGIAVFDGKQITVTGTLWNGNKIIDERLINPDGSLLFRVTINGVTGWRLCERILA | 34 | 34 fold | 4.6 fold | 18 | 36 | 64 | 70 | 11 | 33 | 40 | 41 | 4.6 fold | 6.2 | 6.1 | 40 | 35 | 34 | 32 | 21% | 0.03% | –

Reference: patent US10184116B2, “Chimeric genes for the catalytic protein of Oplophorus luciferase and use thereof” (JNC CORPORATION, priority 2014, dated 2019)
